Our source for the protein stability index values is the supplement of paper PMC10567573.

± gives the standard deviation.

A short description of this data set: protein stability index of a GFP-peptide fusion (GPS, HEK-293T) (PSI 1-6); higher = more stable. Particulars: c terminus: a fixed tail appended.
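Also: 24-mer peptide tiles fused after GFP, lentivirally expressed, FACS-sorted into six equal bins by GFP/DsRed ratio, decoded by Illumina sequencing, PSI is the read-weighted mean bin number.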

MSSHLVEPPPPLHNNNNNCEENEQ [BNIP3L]: the protein stability index was found to be 5.56 ± 0.11 (treatment: DMSO) and 5.67 ± 0.11 (treatment: MLN4924 1 uM, 8 h).
As to MTDQQAEARSYLSEEMIAEFKAAF [TNNC2], the protein stability index runs as follows: (treatment: DMSO) 4.22 ± 0.13; (treatment: MLN4924 1 uM, 8 h) 4.25 ± 0.16.
MTKAQESLTLEDVAVDFTWEEWQF [ZNF649]: the protein stability index reads like this: (treatment: DMSO) 3.36 ± 0.12; (treatment: MLN4924 1 uM, 8 h) 3.74 ± 0.44.
In the case of MTLPLLRQTSTKAVQHFYNIKLEG [ESRRG], the protein stability index is, setting by setting: (treatment: DMSO) 2.48 ± 0.18; (treatment: MLN4924 1 uM, 8 h) 2.44 ± 0.26.
The corresponding values for MTNHQLSTTEWNDETLYQEFNGLK [CHIT1] are 4.37 ± 0.4 and 4.56 ± 0.19.
The sequence MVQQIQENSVEFEACLVAQCDALI [TRIM9] displayed a protein stability index (treatment: DMSO) of 2.9 ± 0.35 and a protein stability index (treatment: MLN4924 1 uM, 8 h) of 2.97 ± 0.36.
Turning to NAGLSSTAGLLREQVAQLKQKVMT [JUNB], the protein stability index runs as follows: (treatment: DMSO) 3.42 ± 0.24; (treatment: MLN4924 1 uM, 8 h) 3.39 ± 0.42.
For the sequence NCIGIRDFALHYCLHHVHYLATEY [GAN], the protein stability index runs as follows: (treatment: DMSO) 3.1 ± 0.51; (treatment: MLN4924 1 uM, 8 h) 3.32 ± 0.33.
In turn, NDALSCEYECRRRMLMKRLDVTVQ [FAM98B] gave a protein stability index (treatment: DMSO) of 2.61 ± 0.24 and a protein stability index (treatment: MLN4924 1 uM, 8 h) of 2.78 ± 0.38.
NFKAHVSPHEMLQAVVLCSKKTFQ [USP39]: the protein stability index runs as follows: (treatment: DMSO) 2.25 ± 0.25; (treatment: MLN4924 1 uM, 8 h) 2.26 ± 0.3.
In the case of NFVRERTLDKRWRVRKEAMMGLAQ [PDS5B], the protein stability index (treatment: DMSO) was found to be 2.8 ± 0.24 and the protein stability index (treatment: MLN4924 1 uM, 8 h) is 2.83 ± 0.39.
The corresponding values for NGDLSRSLSPSPLGSSAASTALER [FCHO1] are 4.78 ± 0.22 and 4.83 ± 0.37.
With NGFTPLHFAAASTHGALCLELLVN [ANKRD44], the protein stability index was determined as 3.06 ± 0.71 (treatment: DMSO) and 2.95 ± 0.9 (treatment: MLN4924 1 uM, 8 h).
The corresponding values for NGRACEMNGEECAEDLRMLDASGE [IKZF1] are 5.07 ± 0.51 and 5.36 ± 0.53.
The corresponding values for NGTAWTYHSQDELGGFSHWGRLTS [PKD2L1] are 2.38 ± 0.4 and 2.6 ± 0.2.
Regarding NIIDIYKQESTRPEKKSDQPMCEE [TRIM55], the protein stability index runs as follows: (treatment: DMSO) 5.05 ± 0.26; (treatment: MLN4924 1 uM, 8 h) 5.02 ± 0.052.
As for NIYCLNCEVPTCSLCKVFGAHKDC [TRIM55], the protein stability index by setting is: (treatment: DMSO) 3.11 ± 0.35; (treatment: MLN4924 1 uM, 8 h) 3.21 ± 0.48.
The corresponding values for NKHLCYVFDSEKCVSIPDVVGWFV [GULP1] are 2.76 ± 0.88 and 2.13 ± 0.51.
The corresponding values for NKILQVFWEEHKASLGREESRAPS [CBY2] are 3.02 ± 0.13 and 3.09 ± 0.22.
As to NKLTTLPSDFCGLTHLVKLDLSKN [LRRC59], the protein stability index (treatment: DMSO) stood at 2.37 ± 0.12 and the protein stability index (treatment: MLN4924 1 uM, 8 h) came to 2.31 ± 0.14.
For NLLQYVRMPLLTPRYITDVIDAEP [KLHL12], the protein stability index runs as follows: (treatment: DMSO) 2.29 ± 0.45; (treatment: MLN4924 1 uM, 8 h) 2.33 ± 0.26.
In the case of NLQSLINNEIPDCYTFSVLITFDN [MCOLN1], the protein stability index (treatment: DMSO) was determined as 2.93 ± 0.22 and the protein stability index (treatment: MLN4924 1 uM, 8 h) is 3.23 ± 0.74.
Consider NMCMGRTSRGKLGGQDSFESIESY [ETS1], for which the protein stability index reads like this: (treatment: DMSO) 3.612 ± 0.034; (treatment: MLN4924 1 uM, 8 h) 3.72 ± 0.49.
Sequence NMERIMKAQALRDNSTMGYMMAKK [HSP90AB1] showed a protein stability index (treatment: DMSO) of 3.38 ± 0.19.
For the sequence NMSREPFSTRALVLSILHATLPGI [SOAT2], the protein stability index came to 3.18 ± 0.55 (treatment: DMSO) and 2.93 ± 0.62 (treatment: MLN4924 1 uM, 8 h).
The corresponding values for NPIGHLPESLTKPDQVAPFTFLQP [ATF4] are 3.56 ± 0.11 and 3.8 ± 0.49.
Turning to NPQALSPQFTGILQLLQSRTSRKF [INTS3], the protein stability index runs as follows: (treatment: DMSO) 2.93 ± 0.22; (treatment: MLN4924 1 uM, 8 h) 2.98 ± 0.35.
NREACRDLSGRRLRDVNHEKAMAE [SDE2] showed a protein stability index (treatment: DMSO) of 5.01 ± 0.12 and a protein stability index (treatment: MLN4924 1 uM, 8 h) of 4.87 ± 0.32.
As to NRERVVSLIEDLQRELEIPEQQVD [ZNF449], the protein stability index stood at 5.13 ± 0.23 (treatment: DMSO) and 5.17 ± 0.16 (treatment: MLN4924 1 uM, 8 h).
With NRPLSLKDQQTFARSVGLKWRKVG [TRADD], the protein stability index runs as follows: (treatment: DMSO) 3.03 ± 0.15; (treatment: MLN4924 1 uM, 8 h) 3.17 ± 0.11.
NRYGDVPCLDQTRVKLTKRSGHTQ [PTPN9] returned a protein stability index (treatment: DMSO) of 3.96 ± 0.4 and a protein stability index (treatment: MLN4924 1 uM, 8 h) of 4.36 ± 0.26.
Consider NSHLTSVPHWINSNTLGFGTEQAP [ETS2], for which the protein stability index is, setting by setting: (treatment: DMSO) 3.42 ± 0.15; (treatment: MLN4924 1 uM, 8 h) 3.45 ± 0.21.
With NSPGAYRSHPDNAIPIKSWFSDPS [CTDNEP1], the protein stability index by setting is: (treatment: DMSO) 3.37 ± 0.23; (treatment: MLN4924 1 uM, 8 h) 3.4 ± 0.12.
On to NSVNDQTKILVVNAAYFVGKWMKK [SERPINB5], for which the protein stability index amounted to 2.3 ± 0.26 (treatment: DMSO) and 2.48 ± 0.5 (treatment: MLN4924 1 uM, 8 h).
Sequence NTFVRYLLKRIKKCCGMRNTDVSM [KCNK9] came in with a protein stability index (treatment: DMSO) of 3.38 ± 0.59 and a protein stability index (treatment: MLN4924 1 uM, 8 h) of 3 ± 0.35.
The corresponding values for NVHATTATGDTALTYACENGHTDV [ANKRD17] are 4.82 ± 0.33 and 4.88 ± 0.19.
With NVRDRDSGRNGEVSLDISPDLPFQ [PCDHGC5], the protein stability index was 4.76 ± 0.42 (treatment: DMSO) and 4.59 ± 0.22 (treatment: MLN4924 1 uM, 8 h).
